Test results reported in patent US20250320501A1, “PALMITOYLATION OF THE ALTERNATIVE AMINO TERMINUS OF THE BTK-C ISOFORM CONTROLS SUBCELLULAR DISTRIBUTION AND SIGNALING” (The Research Foundation for the State University of New York, priority 2022, published 2025).

Test system: BTK-A and BTK-C
Assay: Activating phosphorylation of BTK isoforms after stimulation with other ligands
Format: cell-based, human
Settings: ligand stimulation (not shown)

B1: RANKL: ligand used for stimulation of BTK activation (protein, UniProt O14788 140-317, looked up)
Tumor necrosis factor ligand …: IRAEKAMVDGSWLDLAKRSKLEAQPFAHLTINATDIPSGSHKVSLSSWYHDRGWAKISNMTFSNGKLIVNQDGFYYLYANICFRHHETSGDLATEYLQLMVYVTKTSIKIPSSHTLMKGGSTKYWSGNSEFHFYSINVGGFFKLRSGEEISIEVSNPSLLDPDQDATYFGAFKVRDID
increase of activating phosphorylation levels above unstimulated levels: only modestly
